The target in experiment [1] is T1, GPC3 on the surface of hepatic cancer cell lines (SK-Hep1-GPC3 transfectant, HepG2, Huh7, Hep3B, SNU398) (human, UniProt P51654 25-554).
T1 construct: Species is not restated for the cells (hepatic cancer cell lines, or SK-Hep1 transfected with pCMV/GPC3); also called glypican 3
In words: FACS, SK-Hep1-GPC3 #9 cells, 1 ug antibody; lower left panel. On the procedure:
(§1) After detaching SK-Hep1-GPC3 cells by adding a TrypLE Express solution thereto, the detached SK-Hep1-GPC3 cells were put into a 50 mL tube and centrifuged at room temperature and 2000 rpm for 3 minutes to remove a culture medium, followed by washing with PBS once. The resultant was suspended using a FACS buffer, transferred to a round bottom tube, and centrifuged at room temperature and 2000 rpm for 3 minutes. A supernatant was removed, and the resultant was suitably dissolved using the FACS buffer so as to have a concentration of 4×10⁵ ea/mL. Then, a candidate antibody (1 μg) was added thereto at 4° C., and in an […] control group, a human IgG (1m, Sigma) was added instead of the candidate antibody. After 1 hour, the resultant was washed with the FACS buffer two times, a goat anti-human IgG antibody and FITC conjugated were added thereto at an amount of 1 μL per sample and bound thereto at 4° C. for 30 minutes. After collecting cells by centrifugation at 2000 rpm for 3 minutes, the cells were re-suspended by adding a fixation buffer (500 μL), and measured using a FACS calibur (FIG. 5).
(Flow cytometry measures light scatter and fluorescence of single cells or particles in a stream.)

The target in experiment [2] is T1, GPC3 on the surface of hepatic cancer …. In words: FACS, HepG2 cells, 1 ug antibody; lower left panel (Human naive library).
Experiment [3] has the same target. In words: FACS, SK-Hep1-GPC3 cells, 1 ug antibody; lower right panel. As to the method: as §1
For experiment [4] the target is unchanged. In words: FACS, HepG2 cells, 1 ug antibody; lower right panel.
Experiment [5] addresses T2, recombinant human GPC3 (Cat. No. 2119-GP-050, R&D systems) purified from HEK293 cells (human, UniProt P51654 25-559).
T2 construct: Bought protein
In words: SPR, Biacore T-200, GPC3 immobilised on CM5 chip, antibody flowed 0.078-5 nM. As to the method:
Quantitative binding capacity (affinity) of GX102 and GX270 clone antibodies, purified anti-GPC3 antibodies, to recombinant human GPC 3 was measured using a Biacore T-200(GE Healthcare, U.S.) biosensor. After immobilizing GPC3 (Cat. No. 2119-GP-050, R&D systems) purified from HEK293 cells onto a CM5 chip (GE Healthcare) to an Rmax of 200 using an amine-carboxyl reaction, the GX102 or GX270 antibody sequentially diluted in a HBS-EP buffer solution (10 mM HEPES, pH7.4, 150 mM NaCl, 3 mM EDTA, 0.005% surfactant P20) was flowed at a flow rate of 30 μL/min in a concentration range of 0.078 nM to 5 nM for an association time of 120 seconds and a dissociation time of 1800 seconds. Dissociation of the antibody bound to GPC3 was induced by flowing 10 mM Glycine-HCl (pH1.5) at a flow rate of 30 μL/min for 30 seconds (Table 3). Affinity was obtained as kinetic rate constants (Kₒₙ and Koff) and an equivalent dissociation constant (KD) using a Biacore T-200 evaluation software (Table 4).
(In general: Surface plasmon resonance follows binding to a sensor surface in real time, without labels.)

B1: clone GN337 (scFv, V domains shown)
VH: EVQLVESGPGLVKPSQTLSLTCTVSGGSVSSGGYHWNWIRQHPGKGLEWIGYIFNSGNTDYNPSLRSRLTISQDTSKNQFSLKLSSVTAADTAVYYCARHRSRLLRWFDYWGQGTMVTVSS
VL: DVVLTQSPSSLSAFVGDRVTITCQASQDIRKYLNWFQQKPGKAPKLLIYDASTLETGVSSRFSGSGSGTHFNLVISSLEPEDSATYYCQQHDFVPRTFGQGTKLEIKR
notes: scFv library clone tested as culture supernatant
For B1, the “Mean, FL2-H” value is 3.81 in experiment [1] and 30.8 in experiment [2].

B2: clone GX122 (scFv, V domains shown)
VH: EVQLVESGAEVKKPGASVKVSCKASGYTFTSYYMHWVRQAPGQGLEWMGIINPSGGSTSYAQKFQGRVTMTRDTSTSTVYMELSSLRSEDTAVYYCARDGGSSPDIWGQGTMVTVSS
VL: SYELTQPPSVSVSPGQTARITCSGDALPKKYAYWYQQKSGQAPVLVIYEDKKRPSEIPERFSGSSSGTMATLTITGAQVDDEADYYCYSIDRSGSRGVFGGGTKLTVLG
notes: as for B1
B2: the “Mean, FL2-H” value was found to be 11.6 in experiment [1] and 52.2 in experiment [2].

B3: GX102 clone antibody (purified anti-GPC3 antibody) (antibody, V domains shown)
VH: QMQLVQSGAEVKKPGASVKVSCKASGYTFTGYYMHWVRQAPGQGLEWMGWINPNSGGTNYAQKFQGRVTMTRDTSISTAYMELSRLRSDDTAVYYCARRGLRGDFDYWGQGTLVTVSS
VL: GQSVLTQPPSASETPGQKVTISCSGSSSNIGTNHVFWYQQLPGTAPKLLIYRNNLRPSGVPDRFSGSKSGTSASLAISGLRSEDEADYYCAAWDDSLSWVFGGGTKLTVLG
notes: Purified antibody; also called GX102 antibody; GX102 candidate antibody
The Kd is the constant that tells how readily two partners part at equilibrium. Take B3: the “Mean, FL2-H” value in experiment [3] was found to be 317; in experiment [4], 18.7. The Kd in experiment [5] came out at 0.0092 nM.

B4: GX270 clone antibody (purified anti-GPC3 antibody) (antibody, V domains shown)
VH: QVQLVQSGAEVKKPGASVKVSCKTSGYTFTSSYMHWVRQAPGQGLEWMGIINPNSRGTNYAQKFQGRVTMTSDTSISTAYMELSSLISDDTAVYYCASSSGDYPDYWGQGTLVTVSS
VL: SYELTQPPSVSVSPGQTARIACSGDALPKHYAYWYQQKSGQAPVLVVYEDKKRPAGIPERFSGSSSGTVATLTISGAQVEDEAHYYCYSTDTSGNHRVFGGGTKLTVLG
notes: Purified antibody; also called GX270 antibody; GX270 candidate antibody
With B4, the “Mean, FL2-H” value is 174 in experiment [3] and 14.5 in experiment [4]. In experiment [5], the Kd was found to be 0.07 nM.
